According to patent publication US20220096649A1 (TALLAC THERAPEUTICS, published 2022):

What was measured:
Assay in all cases: SPR, antibody on GLC chip, SIRP as analyte
SIRP-α cynomolgus = target: T1, SIRP-α cynomolgus (cynomolgus, UniProt A0A2K5VYQ9 31-148)
T1 construct: Soluble analyte in SPR; also called cynomologous monkey SIRP-α
T1 sequence: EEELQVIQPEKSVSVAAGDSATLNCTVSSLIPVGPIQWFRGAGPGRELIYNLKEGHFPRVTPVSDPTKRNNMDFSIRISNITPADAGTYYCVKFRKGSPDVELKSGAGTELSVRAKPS
Procedure: (§1) The running buffer was PBS pH 7.4 with 0.01% TWEEN-20 (PBST+). All analytes were used at their nominal concentrations as determined by A280 absorbance and using their molar calculated extinction coefficient. Analytes were injected in a “one-shot” kinetic mode as described (see, e.g., Bravman et al., Anal. Biochem. 2006, 358, 281-288).
(§2) For the method using a GLC chip, the analytes were injected and flowed over anti-SIRPα antibodies immobilized (˜1000 RUs) on GLC chips using Proteon Amine Coupling Kit. For the immobilization step, the GLC chip was activated with EDAC/Sulpho-NHS 1:1 (Biorad) diluted 1/100 for 300 s at 25 μL/min. Anti-SIRPα antibodies were diluted to 80 nM concentration in 10 mM sodium acetate buffer pH 4.5 and immobilized to the chip at 30 μL/min for 50 s. Chip was inactivated with ethanolamine for 300 s at 25 μL/min. The analytes (e.g., SIRP-α from different species, SIRP-β, SIRP-γ) were injected in a “one-shot” kinetic mode at nominal concentrations of 100, 33, 11, 3.7, 1.2, and 0 nM. Association times were monitored for 90 s at 100 uL/min, and dissociation times were monitored for 1200 s. The surfaces were regenerated with a 2:1 v/v blend of Pierce IgG elution buffer/4M NaCl.
(§3) Biosensor data were double-referenced by subtracting the interspot data (containing no immobilized protein) from the reaction spot data (immobilized protein) and then subtracting the response of a buffer “blank” analyte injection from that of an analyte injection. Double-referenced data were fit globally to a simple Langmuir model and the KD value was calculated from the ratio of the apparent kinetic rate constants (KD=kd/kₐ).

Human SIRPγ = target: T2, Human SIRPγ (human, UniProt Q9P1W8 29-147, limits assumed)
T2 construct: Soluble analyte in SPR
T2 sequence (Q9P1W8 29-147 limits assumed): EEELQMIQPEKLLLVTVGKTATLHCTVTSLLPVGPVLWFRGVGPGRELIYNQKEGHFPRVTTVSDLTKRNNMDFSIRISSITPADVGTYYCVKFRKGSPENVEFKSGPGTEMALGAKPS
Procedure: as §1, §2, §3

SIRP-α human v2 = target: T3, SIRP-α human v2 (human, UniProt P78324 31-149, limits assumed)
T3 construct: Soluble analyte in SPR
T3 sequence (P78324 other isoform, or with tags, fused parts or gaps limits assumed): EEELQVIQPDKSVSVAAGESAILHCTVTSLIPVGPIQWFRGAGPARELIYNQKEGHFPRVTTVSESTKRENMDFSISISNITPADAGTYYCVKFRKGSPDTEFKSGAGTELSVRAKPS
Procedure: as §1, §2, §3

SIRP-α mouse BL6 = target: T4, SIRP-α mouse BL6 (mouse (BL6), UniProt P97797 32-150, limits assumed)
T4 construct: Soluble analyte in SPR
T4 sequence (looked up): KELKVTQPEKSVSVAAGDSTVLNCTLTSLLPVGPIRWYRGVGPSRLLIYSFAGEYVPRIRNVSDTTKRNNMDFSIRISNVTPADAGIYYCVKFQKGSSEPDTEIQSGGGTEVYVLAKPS
Procedure: as §1, §2, §3

Human SIRPβ = target: T5, Human SIRPβ (human, UniProt O00241 30-148)
T5 construct: Soluble analyte in SPR
T5 sequence (O00241 30-148): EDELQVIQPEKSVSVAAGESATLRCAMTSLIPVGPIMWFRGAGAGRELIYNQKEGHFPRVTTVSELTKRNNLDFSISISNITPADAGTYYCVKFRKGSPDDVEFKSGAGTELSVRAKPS
Procedure: as §1, §2, §3

Binder | Kd (SIRP-α cynomolgus) [nM] | Kd (Human SIRPγ) [nM] | Kd (SIRP-α human v2) [nM] | Kd (SIRP-α mouse BL6) [nM] | Kd (Human SIRPβ) [nM] | binding result (SIRP-α mouse BL6)
Hum1/AB21_HC_Mutall (antibody, V domains shown, Whole antibody) VH: EVQLVESGGGVVQPGGSLRLSCAASGFTFSSNAMSWVRQAPGKGLEWVAGISAGGSDTYYPASVKGRFTISRDNSKNTLYLQMNSLRAEDTAVYYCARETWNHLFDYWGQGTLVTVSS VL: SYELTQPPSVSVSPGQTARITCSGGSYSSYYYAWYQQKPGQAPVTLIYSDDKRPSNIPERFSGSSSGTTVTLTISGVQAEDEADYYCGGYDQSSYTNPFGGGTKLTVL | 0.029 | 0.001 | 0.0046 | 9.5 | 0.0067 | 
Anti-SIRP-α antibody 119, light chain Mut, heavy chain Mut (antibody, V domains shown, Whole antibody) VH: EVQLLESGGGVVQPGGSLRLSCAASGFSFSNFAVTWVRQAPGKGLEWVSTIGSGDTYYADSVKGRFTISRDNSKNTLYLQMNSLRAEDTAVYYCAKDSTVSWSGDFFDYWGQGTLVTVSS VL: EIVLTQSPATLSVSPGERATLSCRASQNVKNDLAWYQQKPGQAPRLLIYAARIRETGIPARFSGSGSGTEFTLTISSLQSEDFAVYYCQQYYDWPPFTFGGGTKVEIK | 0.2 | 0.34 | 0.088 |  | 0.46 | no binding (tested: 100 nM (highest analyte concentration))
Anti-SIRP-α antibody 135, light chain wt, heavy chain Mut_V34M (antibody, V domains shown, Whole antibody) VH: EVQLVESGGGVVQPGGSLRLSCAASGFSFSIYAMSWVRQAPGKGLEWVSTIGADDTYYADSVKGRFTISRDNSKNTLYLQMNSLRAEDTAVYYCAKDSTVGWSGDFFDYWGQGTLVTVSS VL: EIVLTQSPATLSVSPGERVTFSCRASQNVRSDIAWYQQKPGQAPRLLIYAASSRDTGIPDRFSGSGSGTDFTLTISSLQSEDFGVYYCQQYYDWPPFTFGGGTKVEIK | 0.08 | 0.53 | 0.016 |  | 0.16 | no binding (tested: 100 nM (highest analyte concentration))
Anti-SIRP-α antibody 119, light chain wt, heavy chain wt (antibody, V domains shown, Whole antibody (FreeStyle 293-FS, protein A purified)) VH: EVQLLESGGGVVQPGGSLRLSCAASGFSFSNFAMTWVRQAPGEGLEWVSTIGSGDTYYADSVKGRFTISRDNSKNTLYLQMNSLRAEDTAVYYCAKDSTVSWSGDFFDYWGLGTLVTVSS VL: EIVLTQSPATLSVSPGERATFSCRASQNVKNDLAWYQQRPGQAPRLLIYAARIRETGIPERFSGSGSGTEFTLTITSLQSEDFAVYYCQQYYDWPPFTFGGGTKVEIK | 0.11 | 0.27 | 0.068 |  | 0.34 | no binding (tested: 100 nM (highest analyte concentration))
Anti-SIRP-α antibody 135, light chain Mut, heavy chain Mut (antibody, V domains shown, Whole antibody) VH: EVQLVESGGGVVQPGGSLRLSCAASGFSFSIYAVSWVRQAPGKGLEWVSTIGADDTYYADSVKGRFTISRDNSKNTLYLQMNSLRAEDTAVYYCAKDSTVGWSGDFFDYWGQGTLVTVSS VL: EIVLTQSPATLSVSPGERVTLSCRASQNVRSDIAWYQQKPGQAPRLLIYAASSRDTGIPARFSGSGSGTDFTLTISSLQSEDFGVYYCQQYYDWPPFTFGGGTKVEIK | 0.13 | 0.73 | 0.018 |  | 0.19 | no binding (tested: 100 nM (highest analyte concentration))
Anti-SIRP-α antibody 119, light chain Mut, heavy chain Mut_V34M (antibody, V domains shown, Whole antibody) VH: EVQLLESGGGVVQPGGSLRLSCAASGFSFSNFAMTWVRQAPGKGLEWVSTIGSGDTYYADSVKGRFTISRDNSKNTLYLQMNSLRAEDTAVYYCAKDSTVSWSGDFFDYWGQGTLVTVSS VL: EIVLTQSPATLSVSPGERATLSCRASQNVKNDLAWYQQKPGQAPRLLIYAARIRETGIPARFSGSGSGTEFTLTISSLQSEDFAVYYCQQYYDWPPFTFGGGTKVEIK | 0.12 | 0.26 | 0.069 |  | 0.34 | no binding (tested: 100 nM (highest analyte concentration))
